Source: patent publication US20210139548A1 (published 2021)
*1 amine or outer side, *2 acyl side, *3 side chain or, on linkers, in order; H or OH if unused. Side-chain parts run from the residue outwards. The star is where a group is joined. C18 diacid = O=C(O)CCCCCCCCCCCCCCCCC(=O)*; γGlu = O=C(O)[C@H](CCC(=O)[*:2])N[*:1]; Isovaleryl = CC(C)CC(=O)*; AEEA = NCCOCCOCC(=O)O

T1: human neuropeptide Y2 receptor (human, UniProt P49146 1-381)
T1 construct: whole, on cells; also called hNPY2 receptor; hNPY2-R
T1 sequence (looked up): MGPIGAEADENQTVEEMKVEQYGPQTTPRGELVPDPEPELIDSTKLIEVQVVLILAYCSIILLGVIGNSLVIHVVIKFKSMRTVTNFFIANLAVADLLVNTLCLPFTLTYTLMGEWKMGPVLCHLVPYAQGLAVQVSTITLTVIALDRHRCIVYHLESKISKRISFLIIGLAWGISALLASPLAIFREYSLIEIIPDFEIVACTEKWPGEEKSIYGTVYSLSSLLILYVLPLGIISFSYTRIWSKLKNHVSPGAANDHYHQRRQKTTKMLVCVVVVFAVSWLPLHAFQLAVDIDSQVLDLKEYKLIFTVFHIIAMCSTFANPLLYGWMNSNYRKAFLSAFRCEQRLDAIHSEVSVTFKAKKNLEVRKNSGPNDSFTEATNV

B1: Compound 170 (peptide)
peptide: Isovaleryl-APEK([AEEA-AEEA-γGlu-C18 diacid])PEEEASPEELEQYYVSLRHYYNWLTRQRY-NH2
SMILES: CC(C)CC(=O)N[C@@H](C)C(=O)N1CCC[C@H]1C(=O)N[C@@H](CCC(=O)O)C(=O)N[C@@H](CCCCNC(=O)COCCOCCNC(=O)COCCOCCNC(=O)CC[C@H](NC(=O)CCCCCCCCCCCCCCCCC(=O)O)C(=O)O)C(=O)N1CCC[C@H]1C(=O)N[C@@H](CCC(=O)O)C(=O)N[C@@H](CCC(=O)O)C(=O)N[C@@H](CCC(=O)O)C(=O)N[C@@H](C)C(=O)N[C@@H](CO)C(=O)N1CCC[C@H]1C(=O)N[C@@H](CCC(=O)O)C(=O)N[C@@H](CCC(=O)O)C(=O)N[C@@H](CC(C)C)C(=O)N[C@@H](CCC(=O)O)C(=O)N[C@@H](CCC(N)=O)C(=O)N[C@@H](Cc1ccc(O)cc1)C(=O)N[C@@H](Cc1ccc(O)cc1)C(=O)N[C@H](C(=O)N[C@@H](CO)C(=O)N[C@@H](CC(C)C)C(=O)N[C@@H](CCCNC(=N)N)C(=O)N[C@@H](Cc1c[nH]cn1)C(=O)N[C@@H](Cc1ccc(O)cc1)C(=O)N[C@@H](Cc1ccc(O)cc1)C(=O)N[C@@H](CC(N)=O)C(=O)N[C@@H](Cc1c[nH]c2ccccc12)C(=O)N[C@@H](CC(C)C)C(=O)N[C@H](C(=O)N[C@@H](CCCNC(=N)N)C(=O)N[C@@H](CCC(N)=O)C(=O)N[C@@H](CCCNC(=N)N)C(=O)N[C@@H](Cc1ccc(O)cc1)C(N)=O)[C@@H](C)O)C(C)C
B2: Compound 177 (peptide)
peptide: Isovaleryl-APEK([AEEA-AEEA-γGlu-C18 diacid])PEEDSSPEELQRYYVELRHYYNWLTRQRY-NH2
SMILES: CC(C)CC(=O)N[C@@H](C)C(=O)N1CCC[C@H]1C(=O)N[C@@H](CCC(=O)O)C(=O)N[C@@H](CCCCNC(=O)COCCOCCNC(=O)COCCOCCNC(=O)CC[C@H](NC(=O)CCCCCCCCCCCCCCCCC(=O)O)C(=O)O)C(=O)N1CCC[C@H]1C(=O)N[C@@H](CCC(=O)O)C(=O)N[C@@H](CCC(=O)O)C(=O)N[C@@H](CC(=O)O)C(=O)N[C@@H](CO)C(=O)N[C@@H](CO)C(=O)N1CCC[C@H]1C(=O)N[C@@H](CCC(=O)O)C(=O)N[C@@H](CCC(=O)O)C(=O)N[C@@H](CC(C)C)C(=O)N[C@@H](CCC(N)=O)C(=O)N[C@@H](CCCNC(=N)N)C(=O)N[C@@H](Cc1ccc(O)cc1)C(=O)N[C@@H](Cc1ccc(O)cc1)C(=O)N[C@H](C(=O)N[C@@H](CCC(=O)O)C(=O)N[C@@H](CC(C)C)C(=O)N[C@@H](CCCNC(=N)N)C(=O)N[C@@H](Cc1c[nH]cn1)C(=O)N[C@@H](Cc1ccc(O)cc1)C(=O)N[C@@H](Cc1ccc(O)cc1)C(=O)N[C@@H](CC(N)=O)C(=O)N[C@@H](Cc1c[nH]c2ccccc12)C(=O)N[C@@H](CC(C)C)C(=O)N[C@H](C(=O)N[C@@H](CCCNC(=N)N)C(=O)N[C@@H](CCC(N)=O)C(=O)N[C@@H](CCCNC(=N)N)C(=O)N[C@@H](Cc1ccc(O)cc1)C(N)=O)[C@@H](C)O)C(C)C
B3: Compound 178 (peptide)
peptide: Isovaleryl-APEK([AEEA-AEEA-γGlu-C18 diacid])PEEDATPEETERYYVSLRHYYNWLTRQRY-NH2
SMILES: CC(C)CC(=O)N[C@@H](C)C(=O)N1CCC[C@H]1C(=O)N[C@@H](CCC(=O)O)C(=O)N[C@@H](CCCCNC(=O)COCCOCCNC(=O)COCCOCCNC(=O)CC[C@H](NC(=O)CCCCCCCCCCCCCCCCC(=O)O)C(=O)O)C(=O)N1CCC[C@H]1C(=O)N[C@@H](CCC(=O)O)C(=O)N[C@@H](CCC(=O)O)C(=O)N[C@@H](CC(=O)O)C(=O)N[C@@H](C)C(=O)N[C@H](C(=O)N1CCC[C@H]1C(=O)N[C@@H](CCC(=O)O)C(=O)N[C@@H](CCC(=O)O)C(=O)N[C@H](C(=O)N[C@@H](CCC(=O)O)C(=O)N[C@@H](CCCNC(=N)N)C(=O)N[C@@H](Cc1ccc(O)cc1)C(=O)N[C@@H](Cc1ccc(O)cc1)C(=O)N[C@H](C(=O)N[C@@H](CO)C(=O)N[C@@H](CC(C)C)C(=O)N[C@@H](CCCNC(=N)N)C(=O)N[C@@H](Cc1c[nH]cn1)C(=O)N[C@@H](Cc1ccc(O)cc1)C(=O)N[C@@H](Cc1ccc(O)cc1)C(=O)N[C@@H](CC(N)=O)C(=O)N[C@@H](Cc1c[nH]c2ccccc12)C(=O)N[C@@H](CC(C)C)C(=O)N[C@H](C(=O)N[C@@H](CCCNC(=N)N)C(=O)N[C@@H](CCC(N)=O)C(=O)N[C@@H](CCCNC(=N)N)C(=O)N[C@@H](Cc1ccc(O)cc1)C(N)=O)[C@@H](C)O)C(C)C)[C@@H](C)O)[C@@H](C)O
B4: Compound 174 (peptide)
peptide: Isovaleryl-APAK([AEEA-AEEA-γGlu-C18 diacid])PEEDAEPEELQRYYVSLRHYYNWLTRQRY-NH2
SMILES: CC(C)CC(=O)N[C@@H](C)C(=O)N1CCC[C@H]1C(=O)N[C@@H](C)C(=O)N[C@@H](CCCCNC(=O)COCCOCCNC(=O)COCCOCCNC(=O)CC[C@H](NC(=O)CCCCCCCCCCCCCCCCC(=O)O)C(=O)O)C(=O)N1CCC[C@H]1C(=O)N[C@@H](CCC(=O)O)C(=O)N[C@@H](CCC(=O)O)C(=O)N[C@@H](CC(=O)O)C(=O)N[C@@H](C)C(=O)N[C@@H](CCC(=O)O)C(=O)N1CCC[C@H]1C(=O)N[C@@H](CCC(=O)O)C(=O)N[C@@H](CCC(=O)O)C(=O)N[C@@H](CC(C)C)C(=O)N[C@@H](CCC(N)=O)C(=O)N[C@@H](CCCNC(=N)N)C(=O)N[C@@H](Cc1ccc(O)cc1)C(=O)N[C@@H](Cc1ccc(O)cc1)C(=O)N[C@H](C(=O)N[C@@H](CO)C(=O)N[C@@H](CC(C)C)C(=O)N[C@@H](CCCNC(=N)N)C(=O)N[C@@H](Cc1c[nH]cn1)C(=O)N[C@@H](Cc1ccc(O)cc1)C(=O)N[C@@H](Cc1ccc(O)cc1)C(=O)N[C@@H](CC(N)=O)C(=O)N[C@@H](Cc1c[nH]c2ccccc12)C(=O)N[C@@H](CC(C)C)C(=O)N[C@H](C(=O)N[C@@H](CCCNC(=N)N)C(=O)N[C@@H](CCC(N)=O)C(=O)N[C@@H](CCCNC(=N)N)C(=O)N[C@@H](Cc1ccc(O)cc1)C(N)=O)[C@@H](C)O)C(C)C
B5: Compound 173 (peptide)
peptide: Isovaleryl-APAK([AEEA-AEEA-γGlu-C18 diacid])PEEDASPEELQRYYVELRHYYNWLTRQRY-NH2
SMILES: CC(C)CC(=O)N[C@@H](C)C(=O)N1CCC[C@H]1C(=O)N[C@@H](C)C(=O)N[C@@H](CCCCNC(=O)COCCOCCNC(=O)COCCOCCNC(=O)CC[C@H](NC(=O)CCCCCCCCCCCCCCCCC(=O)O)C(=O)O)C(=O)N1CCC[C@H]1C(=O)N[C@@H](CCC(=O)O)C(=O)N[C@@H](CCC(=O)O)C(=O)N[C@@H](CC(=O)O)C(=O)N[C@@H](C)C(=O)N[C@@H](CO)C(=O)N1CCC[C@H]1C(=O)N[C@@H](CCC(=O)O)C(=O)N[C@@H](CCC(=O)O)C(=O)N[C@@H](CC(C)C)C(=O)N[C@@H](CCC(N)=O)C(=O)N[C@@H](CCCNC(=N)N)C(=O)N[C@@H](Cc1ccc(O)cc1)C(=O)N[C@@H](Cc1ccc(O)cc1)C(=O)N[C@H](C(=O)N[C@@H](CCC(=O)O)C(=O)N[C@@H](CC(C)C)C(=O)N[C@@H](CCCNC(=N)N)C(=O)N[C@@H](Cc1c[nH]cn1)C(=O)N[C@@H](Cc1ccc(O)cc1)C(=O)N[C@@H](Cc1ccc(O)cc1)C(=O)N[C@@H](CC(N)=O)C(=O)N[C@@H](Cc1c[nH]c2ccccc12)C(=O)N[C@@H](CC(C)C)C(=O)N[C@H](C(=O)N[C@@H](CCCNC(=N)N)C(=O)N[C@@H](CCC(N)=O)C(=O)N[C@@H](CCCNC(=N)N)C(=O)N[C@@H](Cc1ccc(O)cc1)C(N)=O)[C@@H](C)O)C(C)C
B6: Compound 176 (peptide)
peptide: Isovaleryl-APEK([AEEA-AEEA-γGlu-C18 diacid])PEEDASEEELQRYYVSLRHYYNWLTRQRY-NH2
SMILES: CC(C)CC(=O)N[C@@H](C)C(=O)N1CCC[C@H]1C(=O)N[C@@H](CCC(=O)O)C(=O)N[C@@H](CCCCNC(=O)COCCOCCNC(=O)COCCOCCNC(=O)CC[C@H](NC(=O)CCCCCCCCCCCCCCCCC(=O)O)C(=O)O)C(=O)N1CCC[C@H]1C(=O)N[C@@H](CCC(=O)O)C(=O)N[C@@H](CCC(=O)O)C(=O)N[C@@H](CC(=O)O)C(=O)N[C@@H](C)C(=O)N[C@@H](CO)C(=O)N[C@@H](CCC(=O)O)C(=O)N[C@@H](CCC(=O)O)C(=O)N[C@@H](CCC(=O)O)C(=O)N[C@@H](CC(C)C)C(=O)N[C@@H](CCC(N)=O)C(=O)N[C@@H](CCCNC(=N)N)C(=O)N[C@@H](Cc1ccc(O)cc1)C(=O)N[C@@H](Cc1ccc(O)cc1)C(=O)N[C@H](C(=O)N[C@@H](CO)C(=O)N[C@@H](CC(C)C)C(=O)N[C@@H](CCCNC(=N)N)C(=O)N[C@@H](Cc1c[nH]cn1)C(=O)N[C@@H](Cc1ccc(O)cc1)C(=O)N[C@@H](Cc1ccc(O)cc1)C(=O)N[C@@H](CC(N)=O)C(=O)N[C@@H](Cc1c[nH]c2ccccc12)C(=O)N[C@@H](CC(C)C)C(=O)N[C@H](C(=O)N[C@@H](CCCNC(=N)N)C(=O)N[C@@H](CCC(N)=O)C(=O)N[C@@H](CCCNC(=N)N)C(=O)N[C@@H](Cc1ccc(O)cc1)C(N)=O)[C@@H](C)O)C(C)C

Biological target: T1, human neuropeptide Y2 receptor
Assay: radioligand competition (125I-PYY(1-36)), hNPY2R membranes
Summary of the method: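 Commercial human Y2 receptor membranes (0.5 μg protein/well) were incubated with peptide for 2 h at room temperature in 50 mM HEPES, 5 mM MgCl₂, 1 mM CaCl₂, pH 7.4, with 0.2% ovalbumin. Bound radioligand was separated on PEI-soaked GF/C filters and counted by scintillation, and IC₅₀ came from nonlinear sigmoidal regression.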

| Ki | Binder |
| --- | --- |
| 12.3 nM | B1 |
| 2.55 nM | B2 |
| 2.05 nM | B3 |
| 3.89 nM | B4 |
| 1.71 nM | B5 |
| 3.05 nM | B6 |
